Assay results as given in the nanobody polyreactivity screen of Harvey et al. (2022).

Test: yeast display, Sf9 membrane polyspecificity reagent, FACS + sequencing; frameworks hold sequencing errors
Outline: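 Sorting gates, low and high (top ~1%), were placed on anti-HA fluorescence to track expression and on streptavidin fluorescence to track reagent binding. A clone's polyreactivity label is taken from the gate it came out of. The reagent was 10% biotinylated, detergent-solubilized Sf9 membrane, applied for 1 hour at 4 °C to galactose-induced yeast display cells.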

Row | Sequence | polyreactivity (PSR sort gate)
1 | QVQLVESGGGLVQAGGSLRFSCAASGSTFRAYAMGWYRQAPGKEREFVASISWSGGRTYYADSVKGRFTISRDNAKNTVYLQMNSLIPEDTAVYYCAADYDVLDYGNLRYGFDYWGQGTKVTVSS | low polyreactivity
2 | QVQLVESGGGLVQAGGSLRLSCAASGGNFKRYAMGWYRQAPGKERELVAAISGRGGSTYYADSVKGRFTISRDYAKNTVYLQMNSLKPEDTAVYYCDAYWRYRTDMDYWGQGTQVTVSS | high polyreactivity
3 | QVQLQESGDGLVQADGSLRLSCAASGYISGYYYMGWYRQQPGKERELVAGIDAFGSSTNYADCVKGRFTISRDNGKNTVYLQMISPKPDDTAVYYCAAVYDDWDYHWYWGQGTQVTVSS | low polyreactivity
4 | QDQLVESRGVIVQAGGSLRLSCAASGRIFSVNAMGWYRQAPGKERELVAAITGSGTITYYADSVKGRFTISRDNAKNIVYLQMNSLKQEDTAVYYCAARPVLRYYAGYYYWGQGTQVTVSS | high polyreactivity
5 | QVQLVESGGGLVQAGGSLRLSCAASGFIFVNYMGWYRQAPGKERELVAAISRGGSTNYADSVKGRFTISRDNAKNTVYLQMNSLKPEDTAVYYCAAETWYSGYTYDYWGQGTQVTVSS | low polyreactivity
6 | QVQLVESGGGLVQAGGSLRLSCAASGRIFSYYTLGWYRQAPGKERELVAAIRISSGGTYYADSVKGRFTISRDNAKNTVYLQMNSLKPEDTAVYYCAARYYGFPSKYDYWGQGTQVTVSS | high polyreactivity
7 | QVQLVESGGGLVQAGGSLRLSCAASGFTFYPYAMGWYRQAPGKERELVASITSAGGTNYADSVKGRFTISRDNAKNTVYLQMNSLKPEDTAVYYCAAKYRSRGPDYYFKSDYWGQGTQVTVSS | low polyreactivity
8 | QVQLVESAAGLVQAGASLRLSCAASGRTSTQNAMGWYRQAPGKERELVAAITTGGGSTYYADSVKGRFTISRDNAKYTVYLQMNSLKPEDTAVYYCAARTPQRSEWTQYGYWGQGTQVTVSS | low polyreactivity
9 | QVQLVESGGGLVQAGGSLRLSCAASGSIFRPNAMGWYRQAPGKEREFVASISGRVGSTYYADSVKGRFTISRDNAKNTVYLQMYSLKPEDTAVYYCAADSRGGYKRNYWGQGTQVTVSS | high polyreactivity
10 | QVQLVESGGGLFQAGGSLRLSCAASGSTFESNAMGWYRQAPGKERELVAAISSSGGSTYYADSVKGRFTISRDNAKNTVYLQMNSLKPEVTAVYYCNKGGLSYYDYWGQVTQVTVSS | high polyreactivity
11 | QVQLVESGGGLVQAGGSLRLSCAASGRIFGNNAMGLYRQAPGKERELVAAIRRGGSTYYADSVKGRFTISRDNAKNTVYLQMNSLKPEDTAVYYCAADSSRKHFYWGQGTQVTVSS | high polyreactivity
12 | QGQHVESGGGLVHAGGSLRLSCAASGSIFPYYAMGWYRQRPGKERELVAAITDCGSTNYADSVKGRFTISRDNAKNTVYLQMNSLKPEDTAVYYCNKLAGYYDYDYWGQCTQVTVSS | low polyreactivity
13 | QVQLVESGGGLVQAGGSLRLSSAASGRTFNIYAKGWYRHAPGKERELVAAITWRSGSTYDADSVKGRFTISRDNAKNTVYLQMNSLKPEDTAVYYCAAEQWSSVPEFDYWGQGTQVTVSS | high polyreactivity
14 | QVQLVESGGGLVQAGGSLRISCAASGSIFRYYAMGWYRQAPGKEREFVDSITYRGGRTYYADSVKGRFTISRDNAKNTVYLQMNSLKPEDTAVYYCAARYRVRYYERDYWGQGTQVTVSS | high polyreactivity
15 | QVQLVESGGGLVQAGGSLRLSCAASGSIFFSNTMGWYRQAPGKERELVASITGDSSTNYADSVKGRFTISRDNAKNTVYLQMNSLKPEDTAVYYCNAGRVLRYVGHYSGDLEYWGQGTQVTVSS | low polyreactivity
16 | QVQLVESGGGLVQAGGSLRLSCAASGNICITYAMGWYRQAPGKEREFVAAISRRRGRTYYADSVKARFTISRDKAKNTVYLQMNSLKPVDTAVYYCAADPATSVYGGLNYWGQVTQVTVSS | high polyreactivity
17 | QGQLVESGGGLVQAGGSLRLSCAASGRTFYVNAMGWYRQAPGKERELVAGISFSDGSTYYADSVKGRFTISRDNAKNSVYLQMNSLKPEDTAVYYCATVGAFDIYYGYGYWVQGTQVTVSS | low polyreactivity
18 | QVQLVESGGGLVQSGGSLRLSCAASGRTFSKNAMGWYRQAPGKERELVAAISGSGGSTYYADSVKGRFTISRDNAKNTVYLQMNSLKPEDTAVYYCADRYTVRRSGYWGQGTQVTVSS | high polyreactivity
19 | QVQLVESGGGLVQAGGSLRLSCAASGSTQKYAMGWYRQAPGKERELVAAIRRTGGSTYYADSVKGRFTISRDNAKNTVYLQMNSLKPEDTAVYYCAADPYNYYVSGYDYWGQVTQVTVSS | low polyreactivity
20 | QVQLVESGGGLVQAGGSLRLSFAASGRTFSRYAMVWYRQAPGKERELVATISFGGSTYYADSVKGRFTISRDNAKNTVYLQMNSLKPEDTALYYCTARYYLNYRGRKYESWGQGTQVTVSS | high polyreactivity
21 | QVQLVESGGGLVQAGGSLRLSCAASGRIFTPYAMGWYRQAPVKERELVAVIRDGSTYYADSVKGRFTISRDNAKNTVDLLMNSLKPEDTAVYYCRYDIWVWWSGAYDYWGQGTQVTVSS | low polyreactivity
22 | QVQLVESGGGLVQAGGSLRLSCAASGSNFFTNAMGGYRQAPGKERELVAVITKRGGSTYYADSVKGRFTISRDNAKNTVYIQMNSLKPEDTAVYYCAADARQWRYYYWGQGSQVTVSS | high polyreactivity

Row | Sequence | polyreactivity (PSR sort gate)
23 | QVQLVESGGGLVQAGGSLRLSSAASGSIFGDYVMGWYRPAPGKERELVAAINRGGSTYYADSVKGRFTISRDNAKNTVYLQMNSLKPEDTAVYDCAKDYHNYPSFGVDYCGQGTQVTVSS | low polyreactivity
24 | HVQLEESGVGLVQAGGSLRVSCAASGSTFGYYRMGGYRQAPGKERELVAAISWRGGSTYYADSVKGRFTISRDNAMNTVYCQMNSLKPEDTAVYYCAAPVGNYGSIDYWGQVTQVTVSS | low polyreactivity
25 | QVQLVESGGGLVQAGGSLRLSSAASGSTFSLYTMGWYRQEPGKERELVAAITWTGGSTYYADSVKGRFTISRDNAKNTVYLQMNSLKPEDTAVYYCAAVSRLTGSRESQLIRSRMYYWGQGTQVTVSS | high polyreactivity
26 | QVQLVESGGGLVQAGGSLRLSCAASGSIIVTYAMGWYRQAPGKERELVATISGGGSTTYADSVKGRFTISRDNAKNTVYLQMNSLKPEDTAVYYCATDARYTSHRTAGYDYWGQGTQVTVSS | low polyreactivity
27 | QVQLVESGGGLVQAGGSLRLICAASGSTYYDYAMGWYRQAPGKERELVAGISRSGGSTYYADSVKGRFTISRDNAKNSVYLQMNSLKPEDTAVYYCAARNYRYLYRIEYWGQGTQVTVSS | high polyreactivity
28 | QVQLVESGGCLVQAGGSLRLSCAASGSIFGTYTMGWYRQAPGKERELVATISNSGGNTYADSVKGRFTISRDNAKNTVNLQMNSLKPEDTAVYYCAVVGGEFSSYGYWGQGTQVTVSS | low polyreactivity
29 | QVQLVESGGGIVQAGGSLRLSCAASGRTFKSNAMGWSIQAPGKERELVAAISRSGVRTDYADSVKGRFTISRDNANITVYLQMNSLKPEDTAVYYCADRTWNRRSPYDYWGQGTQVTVSS | high polyreactivity
30 | QVQLVESGGGLVQAGGSLRLSCAPSGLTFSNYAMGWYRQAPCKERELVAGISSSGGTTYYADSVKGRFTISRDNAKNTVFLQMNSLKPEDTAVYYCATRRHYGSFWYDYWGQGTQVTVSS | high polyreactivity
31 | QVQLVESGGGLDQAGGSLRLSCAASGIIFRSNAMGWYRQAPGKERELVAAITGRGTRTYYADSVKGRFTISRDNAKNTVYLQMNSLKPEDTAVDYCNTGQTRGMGYWGQGTQVTVSS | high polyreactivity
32 | QVQLVESGGGLVQAGGSLRLSCAASGYTFRGYAMGWYRQAPGKEREFVAAMNWSDGSTYYADSVKGRFTISRDNPKNTVYLQMNSLKPEDTAVYYCNADQYYRVPDNYWGQGTQVTVSS | low polyreactivity
33 | QVQLVESGGGLGQAGGSLRLSCAASGFTFRTNAMGWYRQAPGKEREFVAAISWSGGRTYYADSVKGRFTISRDNAKNTVYLQMNSLKPEDTAVYYCNADPFHWYYTNMYYWGQGTQVTVSS | high polyreactivity
34 | QVQHVESGGGLVQAGGSLRLSCAASGRIFHYYAMGWYRQAPGKERELVATISRRGGTTYYADSVKGRFTISRDNAKNTVYLQMNSLKPEDTAVYYCAAKYFGTRYDYWGQGTQVTVSS | high polyreactivity
35 | QVQLVDSGGGLVQAGGSLRLSCAASGRTFTWYAMGWYRQAPGKERELVSAITNGGRTYADSVKGRFTISRDNAKNTVYLQMNSLKPEDTAVYYCAKVQYRGYLPHQRGRERDYDYWGQGTQVTVSS | low polyreactivity
36 | QVQLEESGGGLVQAGGSLRLSCAASGRIFGIYAMGWYRQAPGKERELVASITDGTITNYADSVKGRFTISRDNAKNTVYLQMNSLKPEDTAVYYCAAGTQAHAFVVRPIEMDYWGQGTQVTVSS | low polyreactivity
37 | QVQLVESGGGLVQAGGSLRLSCAASGSIFYYNAMGWYRQAPGKERELVAVISYRSGRTSYADSVKGRFTISRDNAKNTVYLQMNSLKPEDTAVYYCIAKPAVSFSRHYYRYDYWGQGTQVTVSS | high polyreactivity
38 | QVQLVESGGGLVQAGGSLRLSCAASGLIFFYYAMGWYRQAPGKERELVATINWNGGSTYYADSVKGRFTISRDNAKNTVYLQMNSLKPEDTAVYYCAADAPAGGDSDNDYWGQGTQVTVSS | high polyreactivity
39 | QLQLVESGGGLVQAGGSLRLSCAASGSTISGYAMGWYRQAPGKARELVARINSGGGRTYYADSVKGRFTISRDNAKNTVYLQMNSLKREDTEVYYFAAYSKPFPYVSTIRYYYWGQGTQVTVSS | high polyreactivity
40 | QVQLVESGGGLVQAGGSLRLTCAASGRTFYINAMGWYRQAPGKERELVAAISSGGSTNYADSVKGRFTISRDNAKNTVSLQMNSLKPEDTAVYYCNARLRSFTLSDAEYEYWGQGTQVTVSS | low polyreactivity
41 | QVHLVESGGGLVQAGGSLRLSCAASGRIFYGYVMGWYRQAPGTEREFVAAITWSAGSTYYADSVKGRFTISRDNAKNTVYLQMNSLKPEDTALYYCADGGGHYQEYLMEDYWGQGTQVTVSS | high polyreactivity
42 | QVQLVESGGGIVQAGGSLGLSCGASGRTCRKFSMGWYSQAPGNAWEVVAAISSRGGSTYYADSVKGRFTSSRDNAKNTVYLQMNSLIPEDTAVYYCATDSIPPSSEGDYWGQGTQGTVSS | high polyreactivity
43 | QVQLVESGGGLLQAGGSLRLSCAASGITFRRNTMGWYREAPGKVRELVATISWRGGNTFYADSVKGRCTISRDNAKNTVYLQMNSRKPEDTAVYYCAAYSPYITRPGYAPYGYWGQATQVTVSS | high polyreactivity
